± gives the standard deviation.
Assay: protein stability index of a GFP-peptide fusion (GPS, HEK-293T) (PSI 1-6); higher = more stable
[1] = treatment: DMSO, c terminus: a fixed tail appended
[2] = treatment: MLN4924 1 uM, 8 h, c terminus: a fixed tail appended
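Also: 24-mer peptide tiles fused after GFP, lentivirally expressed, FACS-sorted into six equal bins by GFP/DsRed ratio, decoded by Illumina sequencing, PSI is the read-weighted mean bin number.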

| Sequence | protein stability index [1] | protein stability index [2] | protein stability index (treatment: DMSO, c terminus: native) | protein stability index (treatment: MLN4924 1 uM, 8 h, c terminus: native) |
| --- | --- | --- | --- | --- |
| NLRLQRKLQREMERREALCRQLSE [CCDC6] | 3.52 ± 0.27 | 3.63 ± 0.43 |  |  |
| NMTQDEFKSLFGSIGDIESCKLVR [ELAVL3] | 3.28 ± 0.15 | 3.33 ± 0.46 |  |  |
| NQWETPPEDLQTDLAKLVDQQNPT [ZNF449] | 5.36 ± 0.21 | 5.29 ± 0.26 |  |  |
| NRFRVEISFHFEVTNHNIRLFEDV [TRIM43] | 2.73 ± 0.5 | 2.84 ± 0.22 |  |  |
| NRRMVGPDVIPLPHIYGARIKGVE [FAM189A2] | 3.19 ± 0.11 | 3.15 ± 0.27 |  |  |
| NSQNEVNGWTCLHWACKRNHGQVV [ANKRD40] | 2.57 ± 0.24 | 2.65 ± 0.24 |  |  |
| NTCSVITTLKGHEGSVACLWWDPI [WDFY1] | 2.09 ± 0.39 | 2.34 ± 0.46 |  |  |
| NTEERQKRQVTHFQFLSWPDYGVP [PTPN9] | 3.17 ± 0.57 | 3.042 ± 0.028 |  |  |
| NTNVLSRDLIPPHVNFSHLTTKDY [SLC6A17] | 3.49 ± 0.37 | 3.87 ± 0.12 |  |  |
| NVNVTLLSKQAKFAYKDEYEKFKL [TMEM120A] | 2.9 ± 0.15 | 2.82 ± 0.23 |  |  |
| NVPVDDSLVKELLRMCSHGEGKIN [EFHC1] | 3.39 ± 0.2 | 3.55 ± 0.11 |  |  |
| NYGGVIKNYFQHREFSFTLKDDIY [PRIM1] | 2.13 ± 0.2 | 2.25 ± 0.08 |  |  |
| NYYRTWNVVVHDWLYYYAYKDFLW [SOAT1] | 3.73 ± 0.5 | 2.94 ± 0.34 |  |  |
| PADSFESPLTLAACGGHVELAALL [ANKRD17] | 2.87 ± 0.32 | 3.14 ± 0.28 |  |  |
| PEEVKSLDSNGAGEKSENNSSNSD [BCL2L13] | 5.84 ± 0.15 | 5.6 ± 0.23 |  |  |
| PENLLLASKSKGAAVKLADFGLAI [CAMK2D] | 2.53 ± 0.38 | 2.13 ± 0.18 |  |  |
| PEPPAAVDFLEPDSGTCPEVDEEG [FCHO1] | 5.48 ± 0.26 | 5.54 ± 0.21 |  |  |
| PFGESNGNGVHVCNVKYKRWALLS [KLHDC10] | 2.08 ± 0.22 | 2.26 ± 0.33 |  |  |
| PGARGLWKPPDIKGKLMVCYETLP [SPAG8] | 2.56 ± 0.26 | 2.51 ± 0.16 |  |  |
| PGASTEEVKRAFFSKSKELHPDRD [DNAJC4] | 5.12 ± 0.28 | 5.18 ± 0.079 |  |  |
| PGGGDICMYRHALPPGFVLKKDKK [ZC3H15] | 4.29 ± 0.2 | 4.04 ± 0.1 |  |  |
| PGNLEKNRYGDVPCLDQTRVKLTK [PTPN9] |  | 4.32 ± 0.72 |  |  |
| PHIYGARIKGVEVFCPLDPPPPYE [FAM189A2] | 2.96 ± 0.17 | 3.04 ± 0.19 |  |  |

| Sequence | protein stability index [1] | protein stability index [2] | protein stability index (treatment: DMSO, c terminus: native) | protein stability index (treatment: MLN4924 1 uM, 8 h, c terminus: native) |
| --- | --- | --- | --- | --- |
| PIDPAAWVSHTAAMTGTFPAYGMS [DVL3] | 2.73 ± 0.36 | 2.75 ± 0.18 |  |  |
| PIFMRKDTKMSFQWRIRNLPYPKD [DPCD] | 2.27 ± 0.27 | 2.22 ± 0.069 |  |  |
| PKAQLSGYAVEATRNQSQLQRFL [FBF1] |  |  | 4.13 ± 0.19 | 4.21 ± 0.38 |
| PKDIMTNTHAKSILNSMNSLRKSN [KLHL12] | 3.48 ± 0.099 | 3.73 ± 0.34 |  |  |
| PKKEANQAPKSKSGSRPRKPPPRK [LRRC59] | 4.92 ± 0.21 | 5 ± 0.18 |  |  |
| PKPDRLLVLKVLWNDFLMCYSSRP [SLC19A2] | 2.89 ± 0.2 | 3.08 ± 0.46 |  |  |
| PLVALDTDSDDDFDMSRYSSSGYS [FAM219A] | 4.59 ± 0.52 | 4.76 ± 0.38 |  |  |
| PLVTPPQSPVSPQPPAITQVHRQG [SMTNL2] | 4.56 ± 0.35 | 4.58 ± 0.053 |  |  |
| PMVNHAEASRLNIERMKQIYQQLS [CRY1] | 2.81 ± 0.34 | 2.77 ± 0.25 |  |  |
| PNFNFNISHQGDYAVLAAEPELQV [AASDHPPT] | 4 ± 0.09 | 3.93 ± 0.39 |  |  |
| PNGLEAAYEFADRDEVRFFKGNKY [MMP1] | 3.74 ± 0.44 | 3.83 ± 0.3 |  |  |
| PPHYFFTYRIRIEMSKDALPEKAC [FBXO3] | 2.47 ± 0.48 | 2.17 ± 0.23 |  |  |
| PPVSQSRSLFSSVPSKPPMSLEPQ [ANKRD40] | 4.53 ± 0.11 | 4.68 ± 0.4 |  |  |
| PQAPAPATATDTFEAAPPAPAPAP [CEBPB] | 5.28 ± 0.51 | 5.38 ± 0.35 |  |  |
| PQEAAGAQGRAGAPVPEPPKEEQQ [EPB41L3] | 5.2 ± 0.45 | 5.75 ± 0.26 |  |  |
| PQGSGFCLGQLNLEQRSESVRRTR [SMAD6] | 4.39 ± 0.26 | 4.67 ± 0.43 |  |  |
| PQPHRNRAGLDLPTIDTGYDSQPQ [TRAF3IP2] | 4.58 ± 0.2 | 4.76 ± 0.19 |  |  |
| PQYRSYFMECLVDARMLDHLTKKD [PPFIA4] | 2.7 ± 0.2 | 2.58 ± 0.17 |  |  |
| PRARRRLGSGPDRELRKPEEPENG [PWWP2B] | 5.43 ± 0.14 | 5.42 ± 0.2 |  |  |
| PREALSRLQELCHGWLRPEMRTKE [ZNF263] | 3.31 ± 0.23 | 3.55 ± 0.28 |  |  |
| PRFHMACPTFRVSIARLEMGPDEY [FBXO3] | 2.82 ± 0.21 | 2.72 ± 0.24 |  |  |
| PRGRRISVICRSLPEGMGPGESGQ [ALKBH7] | 3.69 ± 0.11 | 3.95 ± 0.37 |  |  |
| PRIIKAAPSCAIMISTYEFGKSFF [SLC25A39] | 2.56 ± 0.49 | 2.28 ± 0.32 |  |  |

| Sequence | protein stability index [1] | protein stability index [2] | protein stability index (treatment: DMSO, c terminus: native) | protein stability index (treatment: MLN4924 1 uM, 8 h, c terminus: native) |
| --- | --- | --- | --- | --- |
| PRSGEQAEGSPGGPGDSQGRKRRQ [CDKN1A] | 5.56 ± 0.16 | 5.48 ± 0.27 |  |  |
| PSHGSLSHSKAPSGSQMSHNAVTS [NCF4] | 4.55 ± 0.1 | 4.83 ± 0.37 |  |  |
| PSHHPTDPVELRRLNFQTPGMASH [PTPRD] | 3.79 ± 0.13 | 3.94 ± 0.34 |  |  |
| PSHLLLPPDTVSRTGLEKAAAGAV [SPDEF] | 4.22 ± 0.33 | 4.26 ± 0.35 |  |  |
| PSLEDLFDLCDRTFSLKTVLMIAI [CSNK1G3] | 2.5 ± 0.42 | 2.38 ± 0.43 |  |  |
| PSRYAAIYNGGVEAVSTLLGAVAV [SLC19A2] | 2.28 ± 0.15 | 2.06 ± 0.37 |  |  |
| PTEGQGSLLTNWPSVPPTIKEEEN [MYBL2] | 5.46 ± 0.23 | 5.42 ± 0.18 |  |  |
| PTGDVLLDEALKHVKETQPPETVQ [GOLPH3] | 5.32 ± 0.1 | 5.21 ± 0.1 |  |  |
| PWAVDPAFAERYAPDKTSTVLTRH [PDLIM7] | 3.57 ± 0.24 | 3.56 ± 0.25 |  |  |
| PYHVDSLLQLSDACRFQEDQEMAR [TCF25] | 4.36 ± 0.17 | 4.04 ± 0.21 |  |  |
| PYKKPYMETSPSEEDSFYRSSYPQ [TBX5] | 3.91 ± 0.47 | 3.65 ± 0.41 |  |  |
| QADLELDYNPPRVQLSDEMFVFQD [CBY2] | 4.65 ± 0.28 | 4.83 ± 0.21 |  |  |
| QADLLAHLVPEPDRLEEQLPWLSL [DNAAF3] | 2.34 ± 0.25 | 2.48 ± 0.28 |  |  |
| QARLLNPSATRAKPGPQDTVERPF [NOP53] | 4.78 ± 0.24 | 4.85 ± 0.14 |  |  |
| QCPEPPIVVHCSAGIGRTGTFCSL [PTPN9] | 2.17 ± 0.26 | 2.14 ± 0.12 |  |  |
| QDKSESLSDNATAFSNRSKQLRRQ [VAMP4] | 5.36 ± 0.4 | 5.17 ± 0.21 |  |  |
| QEELTRINQSFTGAERKAALCELL [IQUB] | 3.41 ± 0.28 | 3.63 ± 0.17 |  |  |
| QEKKILELEKLAEKNIILEEKIQV [MTUS2] | 4.3 ± 0.28 | 4.29 ± 0.17 |  |  |
| QELSEVLELLSAPELKSLAKTFHL [FAN1] | 2.26 ± 0.46 | 2.25 ± 0.14 |  |  |
| QEQLSLSQRQAKELKLEQQEAAER [LRRC45] | 5.5 ± 0.19 | 5.67 ± 0.22 |  |  |
| QFILRVSPDLEWHAACLKCAECSQ [ISL2] | 2.16 ± 0.34 | 2.19 ± 0.34 |  |  |
| QGFRTVLELVINYQQLCIYWTKYY [OAS1] | 2.96 ± 0.33 | 2.79 ± 0.51 |  |  |
| QGLIGSVEEQLAQLRCEMEQQNQE [KRT17] | 5.3 ± 0.36 | 5.29 ± 0.34 |  |  |

| Sequence | protein stability index [1] | protein stability index [2] | protein stability index (treatment: DMSO, c terminus: native) | protein stability index (treatment: MLN4924 1 uM, 8 h, c terminus: native) |
| --- | --- | --- | --- | --- |
| QGLKLYAVEISDHPGEHEVGEPEF [CPXM2] | 4.5 ± 0.55 | 5.11 ± 0.06 |  |  |
| QGPISTKELADFIRERATIEETYS [FCHO1] | 3.13 ± 0.21 | 3.26 ± 0.32 |  |  |
| QILYESCPKYKFISCPTCRRETVL [RNF208] | 2.15 ± 0.32 | 2.23 ± 0.28 |  |  |
| QLFFFHLFVGVDCFLLTAMAYDQF [OR3A1] | 3.13 ± 0.23 | 3.41 ± 0.16 |  |  |
| QLFSQIGPCKNCKMIMDTAGNDPY [TIA1] | 2.32 ± 0.1 | 2.45 ± 0.28 |  |  |
| QLHIFNTLRSHLIDKGMLTSTTED [CDS2] | 2.93 ± 0.2 | 3.09 ± 0.26 |  |  |
| QLIDPDENKENEAFEFKKPVRPVS [CDC25A] | 3.59 ± 0.41 | 4.03 ± 0.27 |  |  |
| QLIGSSNLFVMQVEMDIYTALKKW [GMCL1] | 2.57 ± 0.61 | 2.28 ± 0.81 |  |  |
| QLLADEKMKQLTEETEVLAHEIER [TRIM35] | 5.09 ± 0.46 | 5.21 ± 0.21 |  |  |
| QMLWELVLLGEPLVVMAPSPSESS [DENND6A] | 2.33 ± 0.72 | 2.17 ± 0.49 |  |  |
| QNLLREKIMKLPLPESLKAYLTYF [PCMTD1] | 2.49 ± 0.53 | 2.12 ± 0.36 |  |  |
| QPCSIVDVEFLPVYHPSPEESRDP [LPCAT4] | 4.84 ± 0.28 | 4.88 ± 0.38 |  |  |
| QQPGQDALAVKAGHGYDSKKQQEL [ZBED1] | 5.35 ± 0.22 | 5.21 ± 0.19 |  |  |
| QRCQKCSWSQYEMPEFSSDSTMRI [RTP4] | 2.36 ± 0.18 | 2.42 ± 0.16 |  |  |
| QRGHYRVARILIDLCSDVNVCSLL [RIPK4] | 2.9 ± 0.7 | 2.69 ± 0.28 |  |  |
| QSLAQPLPGNTTEATPRSLRASGS | 4.93 ± 0.33 | 5.13 ± 0.18 |  |  |
| QTESALSKKLRAILPKQSRKSMLD [LCOR] | 3.05 ± 0.098 | 3.14 ± 0.2 |  |  |
| QTLSPDMQGAYCTFPASVLAPVPT [DUSP5] | 3.51 ± 0.32 | 3.51 ± 0.21 |  |  |
| QTMAGSSPNTPQPVPEQSALCQGL [FAM104A] | 4.75 ± 0.19 | 4.84 ± 0.17 |  |  |
| QTQTVAAQAQALAAQAAAAAHAAQ [PI4K2A] | 4.33 ± 0.22 | 4.42 ± 0.19 |  |  |

From the supplement of paper PMC10567573
